# Assay: soluble on expression in E. coli; label from the status in PepcDB or PDB records
row,Sequence,soluble on expression in E. coli
1,MGHHHHHHSHMAYNKEEKIKSLNRMQYEVTQNNGTEPPFQNEYWDHKEEGLYVDIVSGKPLFTSKDKFDSQCGWPSFTKPIEEEVEEKLDTSHGMIRTEVRSRTADSHLGHVFNDGPGPNGLRYCINSAALRFVPKHKLKEEGYESYLHLFNK,soluble
2,MESLLTLPLAGEARVRILQITDTHLFAEKHETLLGVNTWESYQAVLEAIRAQQYEYDLIVATGDLAQDQSAAAYQHFAEGIASFRAPCVWLPGNHDFQPAMYSALQEAGISPAKRVLIGEQWQILLLDSQVFGVPHGELSEFQLEWLERKLADAPERQTLLLLHHHPLPAGCSWLDQHSLRNAGELDSVLANFPRVKYLLCGHIHQELDLDWNGRRLLASPSTCVQFKPHCANFTLDTIAPGWRTLELRANGVLETEVHRLQDTRFRPDTASEGY,not soluble
3,MELKYVIPNMEKTFGQLEYAGEGNIEQRRINGRPTILSRSYNLYSTIQRADDIVVILPSEAGEKHFESDEKVKLINPHITAEGYKIGNRGFTNYIMHADDMVKALEHHHHHH,not soluble
4,MSQTILFVCATGIATSTAVTEKVMEYCKEQGLNVNYSQTNVASLPGNTDGVALVVSTTKVPYELDVPVVNGLPIITGIGEEKVLAQIVSILKK,soluble
5,MGSDKIHHHHHHVIRRKKEADMQLPDAWDWESGERTIMASTAPQEGHLWQEELQASPDGERFAAVTALDETTFSLRINDQTQEATYDKIWLPRFSPDGRLTALVQEDGEWTMLVEEEAWPGHYGYLWSTMFGPSGDIAAPAQQDGEYGMVLNGTPWETLYENANNYCISPAGGKTAAVVQTRSMGQADVATFQEGIYSVAVNGEAWPVNFVNCWTPVFSADGRRVAVQVRRNLHDYTIAVDGTPWTINYQCVWEPCFHPSSGGVAAPVRQNGMWGVALDGQMLWKARNAQCWNLRYSPDGSHLWAVVAPEYGMFTVSLDDTPWTFRAPVVTDMVLSPSGDRAAALASDNNTLWQVVVDGKPWRGTYDMAWQPVFSPDGTRVAARVERNGKYVVLLDGAPAAEAFDTAFDPVFSPDGRKLLLRGVRNGKAVRIVKQLQ,not soluble
6,MGSDKIHHHHHHENLYFQGMNIETLMIKNPPILSKEDRLGSAFKKINEGGIGRIIVANEKIEGLLTTRDLLSTVESYCKDSCSQGDLYHISTTPIIDYMTPNPVTVYNTSDEFTAINIMVTRNFGSLPVVDINDKPVGIVTEREFLLLYKDLDEIFPVKVFMSTKVQTIYKEVRLDQAVKLMLRRGFRRLPVIDDDNKVVGIVTVVNAIKQLAKAVDKLDPDYFYGKVVKDVMVTNLVTIDELASVNRAAAEMIVKRIGSLLILNKDNTIRGIITERDLLIALHHILVMEKFKEKL,soluble
7,MKFLKNVLEEGSKLEEFNELELSPEDKELLEYLQQTKAKITVVGCGGAGNNTITRLKMEGIEGAKTVAINTDAQQLIRTKADKKILIGKKLTRGLGAGGNPKIGEEAAKESAEEIKAAIQDSDMVFITCGLGGGTGTGSAPVVAEISKKIGALTVAVVTLPFVMEGKVRMKNAMEGLERLKQHTDTLVVIPNEKLFEIVPNMPLKLAFKVADEVLINAVKGLVELITKDGLINVDFADVKAVMNNGGLAMIGIGESDSEKRAKEAVSMALNSPLLDVDIDGATGALIHVMGPEDLTLEEAREVVATVSSRLDPNATIIWGATIDENLENTVRVLLVITGVQSRIEFTDTGLKRKKLELTGIPKIGSHHHHHH,soluble
8,MGSSHHHHHHSSGLVPRGSHMQAATVVINRRALRHNLQRLRELAPASKMVAVVKANAYGHGLLETARTLPDADAFGVARLEEALRLRAGGITKPVLLLEGFFDARDLPTISAQHFHTAVHNEEQLAALEEASLDEPVTVWMKLDTGMHRLGVRPEQAEAFYHRLTQCKNVRQPVNIVSHFARADEPKCGATEKQLAIFNTFCEGKPGQRSIAASGGILLWPQSHFDWVRPGIILYGVSPLKDRSTGADFGCQPVMSLTSSLIAVREHKAGEPVGYGGTWVSERDTRLGVVAMGYGDGYPRAAPSGTPVLVNGREVPIVGRVAMDMICVDLGPQAQDKAGDPVILWGEGLPVERIAEMTKVSAYELITRLTSRVAMKYVD,soluble
9,MNDRYTNVKIGLEIHVQLSNAGSKLFCGCDSEYRGYKPNTNVCPVCLGLPGALPVPSRRPIVLAIAASMALGCRVPGTVVFTRKHYFYPDLPKNYQITQFEKAGGAPVCMGGVLEYLNTDSWRWERARIRRINLEEDPGKTYYEGSILTSRYALVDYNRSGVPLLEIVTEPDIPSPRHARMLIDYLLLTLEYIGATNPRLEGVFRVDANISIEGGERVEVKNIGSTQDVEKALKFEISRQRLIVERGGKVERETRHWDAERGMTKPLRLKEEEADYLYFPDPDLPPVEITEDMLAEAEKLASKTPGTIYREIESMGVRREIAWSITSTLPAARLFLEAVKLGADPRIAARLVGVDLKGELKEMGKDLYSPNNWPPPQSIAILSNLVARGDYTYDSIKGLVVPKLAANPGSDVKSLLPEKVKDIERLVEEVLNREKRAVQDYLAGKKKALNYLVGQVMRAAKGRALDPRQAREILLRRLSTVKEEDR,soluble
10,MGSDKIHHHHHHASCNKFDDLNTNPDAATKVTAPMLATKLILNITQQGSAKNFVYHSMLSKQIAWSENASDEQYNLFGRTDFDGYTILTNCQKMVDAANEGDKDSYAALAKFMKAYKLFYKSLEVGDIPYSDALKGEEGVQKPKYDTQKEVMRQVLEDLEEAYTLFSSGSDFDGDPIFGGDTENWKKTVVAFELKVLTHLCKKDTDADLKVKERFARLVSSGSLMTSNADNFQLVYSNKAGQLYPFYYTQNKHSDYLMMSSVIIDNLKKFNDYRMFYYASPAKAQTDKGIKDSEWDAYLSIDPSDSYSNISVLYGKGEFCLANLRYTRVPEGEPLMRLSYAEQNFILAEGAVRGWISEDASTYYKKGIEASMNFIADNTPDKEEYTHGRTITQEYIQEYLAQPVIQLSGDKEKDLEMILLQRYLASFLQHPYDAYYDYRRTGYPVLPINPSTNLNTEKNKIPTRWMYPEAEFSYNPDNANEAVQRQYNGSDDVNKLMWILQ,not soluble
11,MGSDKIHHHHHHMTHIVHKGLDFFVKPQKVSLNLNMKIGSLKVHPEDLKLLMKKVPVFMMSYYDNKAFMERELEISSADFPNGVVFFSYYEPVPAELNWDVDKKLISQLTKYFHLYDLVHSINSLIDETEGSSLHIGVYEEWLDRIMVKVPSENTEELRNMLSRFSLLYTTKILWKIFRGNFEELKKRTHEIAYKLYEVAGF,not soluble
12,MGSDKIHHHHHHAVSETISETAWCLDGFERPTGVNPVIKPLPTKFYCPMREDSVAWEESDTFNPAATIYDGKIVVMYRAEDNSAQGIGSRTSRLGYATSTDGIHFERDTKPAFYPAKDNQAENECPGGTEDPRIAMTEDGTYVLLYTQWNRKVPRLAVATSKDLKHWTKFGPAFEKAYNGKFKDEATKSASLVTTLKGDKQVIAKVNGKYFMYWGEKNVYAATSDNLIDWDPLLDENGELLKLFSPRSGYFDSQLTECGPPAILTKDGIVLLYNGKNEPGEKGDTAYPANSYCAGQALFDVNNPTKLIGRLDKPFLQPTDDFEKSGQYPAGTVFVEGLVYYRNKWYLYYGCADSFVAVAVSDKQLNF,not soluble
13,MSMSNGDAQKDTKTTAETKQTEQKTADSKKSNTQNSEFSLESQYFNDIKKVDGLETIQNPENILALVNKQYALPGNYEPSDLVIPDVEFSFEEKIQKRYIRKEAADALKTMFDAAKKEGYELAAVSGYRSYDRQKVIFDNEVSLKGERKAKEAVAYPGESEHQTGLAMDISSRSNGFELNEAFGSTADGKWVQDNAYKYGFIIRYPKNKEDITKYEYEPWHLRYVGKKAAKVIQDNDLTLEEYFEKVKKILEHHHHHH,not soluble
14,MNIWGPHIVQARRAVAIFCRGLLVLMPALSLLGLTAEAEPRSADDRQRIAAVTAPATGFTVAEPFEQLPGGAATVSGDLGRDAFSRPSANMSFERELDFHLGQALFDKLWVASPSSTKASDGLGPLYNARSCQACHIRDGRGQVSGGPGLVLRIGRVRGDGVLPDPLFGLQIQDSAVPGLRPEARIAVSQAETEVTLNGGEVAVLRKPRYRLDAAEGTLHAESTLSPRLAPQMIGLGLLEAIPEAEILARADPDDRDGDGISGRPNRVHDPETGQEALGRFGWKAGAASVLDQTAAAFASDIGISSPLRPAPWGDCTELQVECRAALHGDGDPRGAEIDGPALALTAFYSRNLAVPARRDVDDPDVLRGKRVFYGIGCPACHVPKHVTAQLSDQPEQSFQLIWPYTDLLLHDMGAGLADELPQGLASGREWRTAPLWGIGLTEQVSGQARFLHDGRARTLLEAVLWHGGEAAAQRDRVIALAPEDRAALIRFLESL,not soluble
15,MGSDKIHHHHHHMNKIVSFFILILVCSCSDRKEHIANILSMNSIDIKTNRINKDEVIARGAFPFEMIDSLFFLFNGDPSSGALVLCESNASELGHFLQKGNGFGECITPGYIGHCNDTIYVSERSRTRRMTYLLSNHNDSLQYKCLEDVSPKMNSEFYYQICRLQSGLFVGARLFGKEHLFTLLDESLDTLTTFARVPIDIEENANNKLAPFIGHLCIDDNTVYYASNDFSYMAAYDILSEKEIKPVFERMYISPIIQKSANGISLDKYKHLLGFGDIRVYQNYIFATYIGKPDITMDQENDISALVPTHLLVFNKDGVPIVKFKFPFKIRSFVFTKSKMYLLDVDCNIESVDLVELWKHLPD,not soluble
16,GSHMAKTLKDLDGWQVIITDDQGRVIDDNNRRRSRKRGGENVFLKRISDGLSFGKGESVIFNDNVTETYSVYLIHEIRLNTLNNVVEIWVFSYLRWFELKPKLYYEQFRPDLIKEDHPLEFYKDKFFNEVNKSELYLTAELSEIWLKDFIAVGQILPESQWNDSSIDKIEDRDFLVRYACEPTAEKFVPIDIFQIIRRVKEMEPKQSDEYLKRVSVPVSGQKTNRQVMHKMG,soluble
17,PKRSDARLPQVAAFSYVEDLLQAGVHVHLYTNGFLHSKLIMVDSQVASIGSTNMDFRSLENNFEFNGIIYDEPTVHRLEAIFFEDLLQSEPLDLKRWRKRSRIKKFSESFVRLFSPLL,not soluble
18,MRRGPARAAALHRAFSLHGKIAAMQRPASSSLPPLDPAASAHSASVARHLRAAIAAAGGWLPFSQWMSAALYAPGLGYYTAGATKLASPADAQGPALPAGDFVTAPELTPLFAATVARQIAQVLRATDTASVLEFGAGTGALAEGVLRALAGLDCPARYLIVEVSADLRQRQQSRLAPFGDRVQWLDQLPDAFAGCVLGNEVLDAMPATLFRWSETGVVQERGVTVDANGEFAWQDRDADAPLAQAVAQRMPPLPGYVSEINLQAEAWVRSMGLWLQRGAALLLDYGFPRSEYYHPQRAGGTLMCHLRHHAHADPFAAPGLQDITSHVDFTAMADAALAGGLQVLGYLSQARFLVNAGLLDALSQLDPADARAYAQAVAPVQKLLSEAEMGELFKVLAVGRDMPEPLLGFARGDRRGTL,not soluble
19,MGSDKIHHHHHHMLKVDPTSPELSILLANPRGFCAGVDRAISIVERALELFEPPIYVRHEVVHNRYVVENLKQRGALFIDELDQVPDNSIVIFSAHGVSQAVRKEAKNRGLKVFDATCPLVTKVHLQVTRASRKGIECILIGHEGHPEVEGTMGQYDNPKGGVYLIESPEDVNNLQVNNPDNLCFVTQTTLSVDDTLDIITALQKRFPSIEGPRKDDICYATQNRQDAVRSMSSEVDLLIVVGSKNSSNSNRLRELAEKTGTQSYLVDTAADVEAMWFDGVKKVAVTAGASAPEVLVQQVVNAIAKLAPSIITEVEGRKEDTVFAVPAELR,not soluble
20,MMNTSDNHALGDFLRARRQRLDPATFGFPAGRRRTPGLRREEVAQLASISPTWYTWLEQGRGGAPSREVLERIARGLRLTTPEREHLFILAFGHPPQTRLTVTDDMTPRLQRVLDAFTIPAIIRTASWDVIAWNAPAARVLTDYSQLPLAERNVLRRLFTRPEARCTLEDWQRVGQLIVNAFRADVTRMGATKETDQLIAELSQQSVEFARFWQSHDVAGHGEGYKRINHPEMGPLDLEFTSFAVEGRPDLSLLVFNPATTESQRKIHGLLQGAGSAPEES,soluble

# From the DeepSol protein solubility set
